Data published in patent publication US20180049457A1, “ENZYMATIC SYNTHESIS OF SOLUBLE GLUCAN FIBER” (E I DU PONT DE NEMOURS AND COMPANY, priority 2014, published 2018).

Assay: GTF activity of strains (PAHBAH assay)
Assay type: biochemical
Conditions: enzyme expressed in B. subtilis host
Protocol: GTF activity of the strains was analyzed by PAHBAH assay in three separate experiments. Due to minor variations between the expeirments, Table 2 lists the activity of the truncated enzymes in the B. subtilis host along with the experiment in which the activity was measured. Most of the T1, T2, and T6 truncations decreased the activity of the enzymes, whereas the T4 and T5 C-terminal truncations retained similar activity relative to the respective N terminal-only truncations (NT). […] To identify specific amino acid residues within the catalytic domain that may be involved in producing the soluble α-glucan fiber, we analyzed the crystal structures (PDB Identifiers: 3AIB, 3AIC, and 3HZ3) of the catalytic domains of three glucosyltransferases to identify residues within 8 Angstroms of the bound ligand. 57 residues met that criterion. A motif was generated based on the corresponding 57 amino acids in GTF0459 and each of the identified homologs. The motif was then used to generate a consensus sequence to capture the variability in the catalytic domains of GTF0459 and the identified homologs. The consensus sequence is provided as SEQ ID NO: 153.

Row | Molecule | GTF activity of strains: Acitivity (Experiment Number 2) | GTF activity of strains: Acitivity (Experiment Number 3) | GTF activity of strains: Acitivity (Experiment Number 1)
1 | GTF4336T4: T4 C-terminal truncation of GTF4336, SEQ ID NO: 130, strain SG1318 (protein, T4 C-terminal truncation of GTF4336) INGKQYYVNSDGSVRKNFVFEQDGKSYYFDAETGALATKSQDEFSTEPIKATVDFSSGNQLYKNDDKSLDQLDTFITADAWYRPKSILKDGKTWTASTEADKRPLLMVWWPDKSTQVNYLNYMQNQGLGAGSFSTNSSQESLDQAAKAVQTKIEERIAREGNTNWLRTSIDQFIKTQPGWNSSTENSSYDHLQGGQLLFNNSKGDTGNRTSHANSDYRLLNRTPTNQTGTRKYFKDNSIGGLEFLLANDIDNSNPAVQAEQLNWLHFMMNIGSIMANDPTANFDGLRVDALDNVDADLLQIASDYFKAAYGVDKSEANAIKHLSYLEAWSANDPYYNKDTKGAQLPIDNALRNALTNLLMRDKNTRMQLGDMTAFINSSLNPRGANDKNGERMANYIFTRAHDTEAQTIIQRIIRDRINPNLFGYNFTRDEIKKAFEIYNEDIDKAHKTYASYNLPSVYALMLTNKDSVTRVYYGDLYREDGHYMAKKTPYFDAIDTLLRARIKYVAGGQDMEVKKVGNDGLLTSVRYGKGANNRTDLGTSETRTQGMGVIMTNNYDFRLGSNETVTMNMGRAHRNQLYRPLLLTTKDGIATYFNDSDVPKNLLKRTDWNGNLTFNANDVFGVENVQVSGYLGVWVPVGAKANQDARTQPSNRANSDGQVYKSSAALDSQVMYEAFSNFQAFADDQPELYMNRVLAKNTDLLKAWGVTSVGLPPQYVSSKDGTFLDSTIDNGYAFDDRYDMALSQNNKYGSLEDLLNVLRALHKDGIQAIADWVPDQIYNLPGKEVVNATRVNGYGYHQQGYQIVDQAYVANTRTDGTDYQGKYGGAFLDELKAKYPSIFNRVQISNGKQLPTNEKITKWSAKYFNGTNILGRGINYVLRDDKTNQYFNTSANSQLLPTPLRDTGAITSTQVFQRRGQDVYFLRDNQAVKNEFVQDGNGNWYYFGADGKMTKGAQTINKKDYYFFDNGIQLRNALRRANNGYTYYYGLDGAMVKNAFVDFDDKRK | 46.4 U/mL |  | 
2 | GTF0974T5: T5 C-terminal truncation of GTF0974 glucosyltransferase, SEQ ID NO: 118, strain SG1317 (protein, T5 C-terminal truncation of GTF0974) INGKQYYVNSDGSVRKNFVFEQDGKSYYFDAETGALATKSQDEFSTEPIKATVDFSSGNQLYKNDDKSLDQLDTFITADAWYRPKSILKDGKTWTASTEADKRPLLMVWWPDKSTQVNYLNYMQNQGLGAGSFSTNSSQESLDQAAKAVQTKIEERIAREGNTNWLRTSIDQFIKTQPGWNSSTENSSYDHLQGGQLLFNNSKGDTGNRTSHANSDYRLLNRTPTNQTGTRKYFKDNSIGGLEFLLANDIDNSNPAVQAEQLNWLHFMMNIGSIMANDPTANFDGLRVDALDNVDADLLQIASDYFKAAYGVDKSEANAIKHLSYLEAWSANDPYYNKDTKGAQLPIDNALRNALTNLLMRDKNTRMQLGDMTAFINSSLNPRGANDKNGERMANYIFTRAHDTEAQTIIQRIIRDRINPNLFGYNFTRDEIKKAFEIYNEDIDKAHKTYASYNLPSVYALMLTNKDSVTRVYYGDLYREDGHYMAKKTPYFDAIDTLLRARIKYVAGGQDMEVKKVGNDGLLTSVRYGKGANNRTDLGTSETRTQGMGVIMTNNYDFRLGSNETVTMNMGRAHRNQLYRPLLLTTKDGIATYLNDSDVPKKLLKRTDWNGNLTFNANDVFGVENVQVSGYLGVWVPYGAKANQDARTQPSNRANSDGQVYKSSAALDSQVMYEAFSNFQAFADDQPELYMNRVLAKNTDLLKAWGITSVGLPPQYVSSKDGTFLDSTIDNGYAFDDRYDMALSQNNKYGSLEDLLNVLRALHKDGIQAIADWVPDQIYNLPGKEVVNATRVNGYGNHQVGYQIIDQAYVANTRTDGTDYQGKYGGAFLDELKAKYPSIFNRVQISNGKQLPTNEKITKWSAKYFNGTNILGRGINYVLRDDKTNQYFNTSANSQLLPTPLRDTGAITSTQVFQRRGQDVYFLRDNQAVKNEFVQDGNGNWYYFGGDGKMTKGAQNINNKDYYFFDNGIQLRNALRRASNGYTYYYGLDGAMVKNAFVDFDDKHKQ | 43.5 U/mL | 37.7 U/mL | 
3 | GTF4336T5: T5 C-terminal truncation of GTF4336, SEQ ID NO: 120, strain SG1319 (protein, T5 C-terminal truncation of GTF4336) INGKQYYVNSDGSVRKNFVFEQDGKSYYFDAETGALATKSQDEFSTEPIKATVDFSSGNQLYKNDDKSLDQLDTFITADAWYRPKSILKDGKTWTASTEADKRPLLMVWWPDKSTQVNYLNYMQNQGLGAGSFSTNSSQESLDQAAKAVQTKIEERIAREGNTNWLRTSIDQFIKTQPGWNSSTENSSYDHLQGGQLLFNNSKGDTGNRTSHANSDYRLLNRTPTNQTGTRKYFKDNSIGGLEFLLANDIDNSNPAVQAEQLNWLHFMMNIGSIMANDPTANFDGLRVDALDNVDADLLQIASDYFKAAYGVDKSEANAIKHLSYLEAWSANDPYYNKDTKGAQLPIDNALRNALTNLLMRDKNTRMQLGDMTAFINSSLNPRGANDKNGERMANYIFTRAHDTEAQTIIQRIIRDRINPNLFGYNFTRDEIKKAFEIYNEDIDKAHKTYASYNLPSVYALMLTNKDSVTRVYYGDLYREDGHYMAKKTPYFDAIDTLLRARIKYVAGGQDMEVKKVGNDGLLTSVRYGKGANNRTDLGTSETRTQGMGVIMTNNYDFRLGSNETVTMNMGRAHRNQLYRPLLLTTKDGIATYFNDSDVPKNLLKRTDWNGNLTFNANDVFGVENVQVSGYLGVWVPVGAKANQDARTQPSNRANSDGQVYKSSAALDSQVMYEAFSNFQAFADDQPELYMNRVLAKNTDLLKAWGVTSVGLPPQYVSSKDGTFLDSTIDNGYAFDDRYDMALSQNNKYGSLEDLLNVLRALHKDGIQAIADWVPDQIYNLPGKEVVNATRVNGYGYHQQGYQIVDQAYVANTRTDGTDYQGKYGGAFLDELKAKYPSIFNRVQISNGKQLPTNEKITKWSAKYFNGTNILGRGINYVLRDDKTNQYFNTSANSQLLPTPLRDTGAITSTQVFQRRGQDVYFLRDNQAVKNEFVQDGNGNWYYFGADGKMTKGAQTINKKDYYFFDNGIQLRNALRRANNGYTYYYGLDGAMVKNAFVDFDDKRKQ | 43.6 U/mL |  | 
4 | GTF0974NT: N terminal-only truncated GTF0974 from Streptococcus salivarius 57.I, SEQ ID NO: 110, strain SG1290 (protein, Streptococcus salivarius 57.I) INGKQYYVNSDGSVRKNFVFEQDGKSYYFDAETGALATKSQDEFSTEPIKATVDFSSGNQLYKNDDKSLDQLDTFITADAWYRPKSILKDGKTWTASTEADKRPLLMVWWPDKSTQVNYLNYMQNQGLGAGSFSTNSSQESLDQAAKAVQTKIEERIAREGNTNWLRTSIDQFIKTQPGWNSSTENSSYDHLQGGQLLFNNSKGDTGNRTSHANSDYRLLNRTPTNQTGTRKYFKDNSIGGLEFLLANDIDNSNPAVQAEQLNWLHFMMNIGSIMANDPTANFDGLRVDALDNVDADLLQIASDYFKAAYGVDKSEANAIKHLSYLEAWSANDPYYNKDTKGAQLPIDNALRNALTNLLMRDKNTRMQLGDMTAFINSSLNPRGANDKNGERMANYIFTRAHDTEAQTIIQRIIRDRINPNLFGYNFTRDEIKKAFEIYNEDIDKAHKTYASYNLPSVYALMLTNKDSVTRVYYGDLYREDGHYMAKKTPYFDAIDTLLRARIKYVAGGQDMEVKKVGNDGLLTSVRYGKGANNRTDLGTSETRTQGMGVIMTNNYDFRLGSNETVTMNMGRAHRNQLYRPLLLTTKDGIATYLNDSDVPKKLLKRTDWNGNLTFNANDVFGVENVQVSGYLGVWVPYGAKANQDARTQPSNRANSDGQVYKSSAALDSQVMYEAFSNFQAFADDQPELYMNRVLAKNTDLLKAWGITSVGLPPQYVSSKDGTFLDSTIDNGYAFDDRYDMALSQNNKYGSLEDLLNVLRALHKDGIQAIADWVPDQIYNLPGKEVVNATRVNGYGNHQVGYQIIDQAYVANTRTDGTDYQGKYGGAFLDELKAKYPSIFNRVQISNGKQLPTNEKITKWSAKYFNGTNILGRGINYVLRDDKTNQYFNTSANSQLLPTPLRDTGAITSTQVFQRRGQDVYFLRDNQAVKNEFVQDGNGNWYYFGGDGKMTKGAQNINNKDYYFFDNGIQLRNALRRASNGYTYYYGLDGAMVKNAFVDFDDKHKQVRAFTTQGTMVVGNLHWSGHHFYFDRETGIQAKDRVVRTDDGKLHYYVAETGDMGRNVFATDSSTGKRYYFDADGNTVTGSRVIDGKTYYFNQDGSVGTAYSNRADSIIFENGKARYITPAGEIGRSIFVYNPETKAWNYFDKEGNRVTGRQYIDGHLYYFKEDGSQAKGEIIEENGVKYYYEPESGILASGRYLQVGDDQWMYFKQDGSLAIGQVRADHGYLKYFDKNGIQVKGKTVVEDGKTYYYDAHSGALVTSSFAEIAPNQWSYFNTDGQALKGKWTINGKEYYFDENGIQYKGKAIKVGSRYKYYDENDGQPVTNRFAQIEPNVWAYFGADGYAVTGEQVINGQHLYFDQSGRQVKGAYVTVNGQRRYYDANTGEYVPGR | 53 U/mL | 36.4 U/mL | 43.7 U/mL
